This note sets out measurements from paper PMC7617963 (Current biology : CB, 2024).

The data set concerns the molecule itself. The data set is described as follows: cross-linking; BS3 cross-linker mixed 1:1 (w/w) with protein at 1 mg/ml, 30 minutes at room temperature, quenched with 200 mM ammonium bicarbonate, resolved by SDS-PAGE.

B1: CENP-E_(2452-2598) (domain or fragment, human, UniProt Q02224-1 2452-2598, looked up)
chain: PYKEEIEDLKMKLVKIDLEKMKNAKEFEKEISATKATVEYQKEVIRLLRENLRRSQQAQDTSVISEHTDPQPSNKPLTCGGGSGIVQNTKALILKSEHIRLEKEISKLKQQNEQLIKQKNELLSNNQHLSNEVKTWKERTLKREAHK
notes: CENP-E (centromere-associated protein E), residues 2452-2598; cell constructs were generated from CENP-E transcript variant 1 (NM_001813.2); cloned into pET3aTr for expression; The purification says that the His tag was cleaved with 3C protease, yet the crystallisation and cross-linking methods call the protein His6-CENP-E_(2452-2598); also called His6-CENP-E_(2452-2598); minimal corona-targeting …
As usually defined, the stoichiometry N is a count of units in the complex or per binding partner. For the protein B1, the “stoichiometry N” value stood at 2.
